First the molecules themselves.
B1: p53_R248QW_A2_c117 (scFv)
scFv: DIQMTQSPSSLSASVGDRVTITCRASQDVNTAVAWYQQKPGKAPKLLIYSASFLYSGVPSRFSGSRSGTDFTLTISSLQPEDFATYYCQQGLYYPWTFGQGTKVEIKRTGGGSGGGGSGGGASEVQLVESGGGLVQPGGSLRLSCAASGFNVSYSSIHWVRQAPGKGLEWVAEIWPDSGQTWYADSVKGRFTISADTSKNTAYLQMNSLRAEDTAVYYCSRSSYFDAMDYWGQGTLVTVSS
B2: p53_R248QW_A2_c114 (scFv)
scFv: DIQMTQSPSSLSASVGDRVTITCRASQDVNTAVAWYQQKPGKAPKLLIYSASFLYSGVPSRFSGSRSGTDFTLTISSLQPEDFATYYCQQYLYQPWTFGQGTKVEIKRTGGGSGGGGSGGGASEVQLVESGGGLVQPGGSLRLSCAASGFNIDYYGMHWVRQAPGKGLEWVASLYGGSDSTDYADSVKGRFTISADTSKNTAYLQMNSLRAEDTAVYYCSRQYSAYFDYWGQGTLVTVSS
B3: p53_R248Q_A2_c14 (scFv)
scFv: DIQMTQSPSSLSASVGDRVTITCRASQDVNTAVAWYQQKPGKAPKLLIYSASFLYSGVPSRFSGSRSGTDFTLTISSLQPEDFATYYCQQSLYGPFTFGQGTKVEIKRTGGGSGGGGSGGGASEVQLVESGGGLVQPGGSLRLSCAASGFNIAYEYMHWVRQAPGKGLEWVALIGPDSGYTYYADSVKGRFTISADTSKNTAYLQMNSLRAEDTAVYYCSRVWYYSTYGMDYWGQGTLVTVSS
B4: p53_R248W_A2_c111 (scFv)
scFv: DIQMTQSPSSLSASVGDRVTITCRASQDVNTAVAWYQQKPGKAPKLLIYSASFLYSGVPSRFSGSRSGTDFTLTISSLQPEDFATYYCQQSGYQPDTFGQGTKVEIKRTGGGSGGGGSGGGASEVQLVESGGGLVQPGGSLRLSCAASGFNISWYAMHWVRQAPGKGLEWVAEIWPDSDWTYYADSVKGRFTISADTSKNTAYLQMNSLRAEDTAVYYCSRYYYSSAFDVWGQGTLVTVSS
B5: p53_R248Q_A2_c10 (scFv)
scFv: DIQMTQSPSSLSASVGDRVTITCRASQDVNTAVAWYQQKPGKAPKLLIYSASFLYSGVPSRFSGSRSGTDFTLTISSLQPEDFATYYCQQSGYAPITFGQGTKVEIKRTGGGSGGGGSGGGASEVQLVESGGGLVQPGGSLRLSCAASGFNISYYSMHWVRQAPGKGLEWVADVDPDSDYTEYADSVKGRFTISADTSKNTAYLQMNSLRAEDTAVYYCSRSWIHMFSMDYWGQGTLVTVSS
B6: p53_R248W_A2_c12 (scFv)
scFv: DIQMTQSPSSLSASVGDRVTITCRASQDVNTAVAWYQQKPGKAPKLLIYSASFLYSGVPSRFSGSRSGTDFTLTISSLQPEDFATYYCQQYSYAPITFGQGTKVEIKRTGGGSGGGGSGGGASEVQLVESGGGLVQPGGSLRLSCAASGFNIGYYTMHWVRQAPGKGLEWVAEVSPWSYSTSYADSVKGRFTISADTSKNTAYLQMNSLRAEDTAVYYCSRDHWDEAFDVWGQGTLVTVSS
B7: p53_R248W_A2_c18 (scFv)
scFv: DIQMTQSPSSLSASVGDRVTITCRASQDVNTAVAWYQQKPGKAPKLLIYSASFLYSGVPSRFSGSRSGTDFTLTISSLQPEDFATYYCQQYSYSPITFGQGTKVEIKRTGGGSGGGGSGGGASEVQLVESGGGLVQPGGSLRLSCAASGFNLFGYGMHWVRQAPGKGLEWVAEIGPYYYYTSYADSVKGRFTISADTSKNTAYLQMNSLRAEDTAVYYCSRENYDMAMDYWGQGTLVTVSS

The assay has as its target p53 wt(245-254) peptide … with HLA-A2 and b2M on peptide-pulsed T2 cells (human). Put plainly: flow cytometry, phage-displayed scFv on peptide-pulsed T2 cells (FIG. 4). On the technique in general: A flow cytometer gives signals particle by particle.
Method: Cells were stained with 10 μL of precipitated phage per 100 μL of cells, washed and stained with rabbit anti-M13 antibody, then washed and stained with anti-Rabbit-PE antibody. Cells were stained with a live/dead Near-IR dye, washed, and analyzed by an LSRII flow cytometer.
The pulsed cells were pelleted, washed once in cold stain buffer (PBS containing 0.5% BSA, 2 mM EDTA, and 0.1% sodium azide), and resuspended in 100 μL of stain buffer. Phage staining was performed on ice with 10 uL (approximately 1×10⁹) phage for 1 hour in 100 uL total volume, followed by one 4 mL wash in cold stain buffer. Cells were then stained with 1 uL of rabbit anti-M13 antibody (Pierce, Rockford, Ill.) in 100 uL total volume on ice for 1 hour and washed once with 4 mL of cold stain buffer. Cells were stained with anti-rabbit-PE (Biolegend) on ice for 1 hour in 100 uL total volume, followed by incubation with LIVE/DEAD Fixable Near-IR Dead Cell Stain (Thermo Fisher) for 10 min at room temperature per manufacturer's instructions. Cells were washed once in 4 mL of stain buffer followed by resuspension in 300 uL of stain buffer before analysis. Stained cells were analyzed using an LSRII flow cytometer (Becton Dickinson, Mansfield, Mass.).
Consider B1, for which the binding result is “no binding”.
With B2, the binding result is “no binding”.
Consider B3, for which the binding result is recorded as “no binding”.
In the case of B4, the binding result is reported as “no binding”.
With B5, the binding result is “no binding”.
Turning to B6, the binding result was “no binding”.
The same measure for B7: “no binding”.
